One block for each binder: values may come before it.
Experiments:
human ErbB-2 (HER2) [1] = target: T1, human ErbB-2 (HER2) (human, UniProt P04626 23-1255); assay: cell-based or functional assay
human ErbB-3 (HER3) [2] = target: T2, human ErbB-3 (HER3) (human, UniProt P21860 20-1342); assay: cell-based or functional assay
[3] = target: human HER2 and HER3 co-expressed on tumour cells (human, UniProt P04626 23-1255; P21860 20-1342); assay: cell-based or functional assay
ErbB2-Fc (RND systems) = target: T3, ErbB2-Fc (RND systems) (UniProt P04626 23-652); assay: SPR (BIACORE T100), ErbB2-Fc on CM5 chip, bispecific as analyte, 1:1 monovalent model
T3 construct: Bought protein; also called Fc-HER2; Her2-Fc; not shown: Fc part of the bought fusion protein

human ErbB-3 (HER3) [4] = target: T2, human ErbB-3 (HER3); assay: FACS on CHO-K1 cells with HER3 constructs; epitope group 3 = 'Reactivity to rat, cyno and human HER3' (Table 5)
human ErbB-2 (HER2) [5] = target: T1, human ErbB-2 (HER2); assay: antigen titration ELISA: coated monomeric HER2 (ECD-Erbb-2) varied about 0.019-2.5 µg/ml (x axis), IgG fixed at 10 µg/ml as the text says; readout OD450 [lower panel]
Procedure: Wells of the ELISA plates were blocked with PBS (pH 7.2) containing 5% BSA for 1 hour at 37° C. Selected antibodies were tested in duplo at a concentration of 10 µg/ml diluted in PBS-2% BSA and allowed to bind for 2 hours at 25° C. As a control the procedure was performed simultaneously with an antibody specific for the coated antigens and a negative control antibody. The ELISA plates were washed 5 times with PBS-T (PBS-0.05% v/v Tween 20). Bound IgG was detected with 1:2000 diluted IIRP-conjugate (Goat anti-mouse IgG, BD Biosciences) and was allowed to bind for 2 hours at 25° C. The ELISA plates were washed 5 times with PBS-T (PBS-0.05% Tween 20) and bound IgG was detected by means of OD492 nm measurement.

B3: PB3448 (MF1849xMF3178) (bispecific antibody, IgG1, V domains shown)
VH 1: QVQLVESGGGVVQPGRSLRLSCAASGFTFSSYGMHWVRQAPGKGLEWVAVISYDGSNKYYADSVKGRFTISRDNSKNTLYLQMNSLRAEDTAVYYCAKGDYGSYSSYAFDYWGQGTLVTVSS
VH 2: not shown
VL: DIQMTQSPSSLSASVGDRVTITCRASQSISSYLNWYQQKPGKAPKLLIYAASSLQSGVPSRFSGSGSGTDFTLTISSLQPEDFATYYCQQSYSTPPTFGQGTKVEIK
notes: IgG1 bispecific with CH3 heterodimerisation mutations
BxPC3 % Inhibition [3]: -22%
MCF-7 IC50 (pM), HRG dependent proliferation [3]: 371 pM
Kd (ErbB2-Fc (RND systems)): 5.4 nM

B5: PG2930 (antibody, IgG1, V domains shown)
VH: EVQLQQSGAELVKPGASVMMSCKVSGYTFTSYPIAWMKQVHGKSLEWIGNFHPYSDDTKYNENFKGKATLTVEKSSSTVYLELSRLTSDDSAVYYCARSNPLYYFAMDYWGQGTSVTVSS
VL: not shown
notes: Monospecific IgG1; also called MF2930; copies: 2 + 2
HRG dependent MCF-7 proliferation assay, % activity compared to #Ab6, 1 µg/ml IgG (human ErbB-2 (HER2) [1]): 7%
SKBR-3 proliferation assay, % activity compared to trastuzumab, 1 µg/ml IgG (human ErbB-2 (HER2) [1]): 0%
EC50 (read off the curve) (human ErbB-2 (HER2) [5]): ~0.7 µg/mL

B6: PB3566 (MF3004xMF3178) (bispecific antibody, IgG1, V domains shown)
VH 1: QVQLKQSGAELVRPGASVKLSCKASGYTFTGYYINWVKQRPGQGLEWIARIYPGSGYTYYNEKFKGKATLTAEESSSTAYMHLSSLTSEDSAVYFCARPHYGYDDWYFGVWGTGTTVTVSS
VH 2: not shown
VL: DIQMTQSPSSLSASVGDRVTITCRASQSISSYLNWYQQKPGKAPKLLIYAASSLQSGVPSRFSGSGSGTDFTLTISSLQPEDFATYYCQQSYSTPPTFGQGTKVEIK
BxPC3 % Inhibition [3]: -20%
MCF-7 IC50 (pM), HRG dependent proliferation [3]: 7.9 pM

B7: PG3004 (antibody, IgG1, V domains shown)
VH: B6 VH 1
VL: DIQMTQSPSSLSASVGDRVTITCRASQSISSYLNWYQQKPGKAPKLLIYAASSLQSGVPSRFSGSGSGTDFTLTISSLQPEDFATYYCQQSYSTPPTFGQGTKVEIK
HRG dependent MCF-7 proliferation assay, % activity compared to #Ab6, 1 µg/ml IgG (human ErbB-2 (HER2) [1]): 56%
SKBR-3 proliferation assay, % activity compared to trastuzumab, 1 µg/ml IgG (human ErbB-2 (HER2) [1]): 49%

Results, then the binder that gave them:

HRG dependent MCF-7 proliferation assay, % activity compared to #Ab6, 1 µg/ml IgG (human ErbB-2 (HER2) [1]): 58%
SKBR-3 proliferation assay, % activity compared to trastuzumab, 1 µg/ml IgG (human ErbB-2 (HER2) [1]): 49%
B1: PG2973 (antibody, IgG1, V domains shown)
VH: QVQLKQSGAELVRPGASVKLSCKASGYIFTGYYINWLRQRPGQGLEWIAKIYPGSGNTYYNEKFRGKATLTAEESSSTAYMQLSSLTSEDSAVYFCARGPHYDYDGPWFVYWGQGTLVTVSS
VL: not shown

BxPC3 % Inhibition (human ErbB-3 (HER3) [2]): -7%
MCF-7 IC50 (pM), HRG dependent proliferation (human ErbB-3 (HER3) [2]): 504 pM
B2: #Ab6 (antibody, V domains shown)
VH: EVQLLESGGGLVQPGGSLRLSCAASGFTFSHYVMAWVRQAPGKGLEWVSSISSSGGWTLYADSVKGRFTISRDNSKNTLYLQMNSLRAEDTAVYYCTRGLKMATIFDYWGQGTLVTVSS
VL: QSALTQPASVSGSPGQSITISCTGTSSDVGSYNVVSWYQQHPGKAPKLIIYEVSQRPSGVSNRFSGSKSGNTASLTISGLQTEDEADYYCCSYAGSSIFVIFGGGTKVTVL

binding result (human ErbB-3 (HER3) [4]): binds
B4: PG3099 (antibody, IgG1, V domains shown)
VH: EVQLQQPGAELVRPGTSVKLSCKASGYTFTSYWMHWVKQRPGQGLEWIGILDPSDSYTTYNQKFKGKATLTVDTSSSIAYMQLSSLTSEDSALYYCARGGDYDEGGAMDYWGQGTSVTVSS
VL: not shown
notes: Monospecific IgG1; also called MF3099; copies: 2 + 2

Source: patent US11279770 (MERUS N V, dated 2022)
